Source: US20110223176A1 (AbbVie / Abbott, published 2011)

Assays:
[1] = target: T1, cynomolgus monkey BSG2 on the cell surface (cynomolgus monkey); assay: receptor binding assay, Eu-labeled antibody on cells expressing cynomolgus BSG2
T1 construct: whole, on cells; also called BAF3-cyno BSG2; Cyno BSG2
Procedure: Cell lines expressing BSG2 were harvested and washed once in assay buffer (PBS, 0.1% BSA, 0.02% Na Azide, 10 mM EDTA) and resuspended to 5×10⁶ cells per mL. Serial 1:2 dilutions of ⁺³Eu-labeled anti-BSG2 antibody stock in assay buffer were made for final concentrations ranging from 1.6×10⁻⁸-7.7×10⁻¹² M, and a 4 mg/mL solution of unlabeled anti-BSG2 antibody was also prepared. To 96 well round bottom plates, 25 μl of ⁺³Eu-labeled antibody dilutions were added to 25 μl buffer (total counts), or 25 μl of unlabeled antibody were added to 25 μl buffer (background counts). 50 μl of cells at 2.5×10⁵ cells per well were then added to all samples, mixed gently, and incubated on ice for 1 hour. […] Signal was determined by incubating samples with 150 μL/well of enhancement buffer and read using Envision. The specific counts were determined by subtracting the background counts (cells+labeled antibody+excess cold antibody) from the corresponding total counts (cells+labeled antibody) for each antibody concentration. The labeled antibody concentration versus total counts was analyzed using Graphpad Prism 4 to calculate Kd and Bmax values.
(§1) BSG2 antibody binding activities against whole cells expressing human or cynomolgus monkey BSG2 were assessed by ECL using MSD technology (described in Example 1.3) and the receptor binding assay (described in Example 1.4) and are shown in Table 11.

[2] = target: T2, human BSG2 (basigin isoform 2) on the cell surface (human, UniProt P35613 140-385); assay: cell-based ECL (MSD) binding on whole cells expressing human BSG2
T2 construct: Presented on stably transfected BAF3 cells or endogenously on human tumor cell lines (HepG2, MiaPaCa-2, DoHH-2); also called hBSG2; CD147
T2 sequence: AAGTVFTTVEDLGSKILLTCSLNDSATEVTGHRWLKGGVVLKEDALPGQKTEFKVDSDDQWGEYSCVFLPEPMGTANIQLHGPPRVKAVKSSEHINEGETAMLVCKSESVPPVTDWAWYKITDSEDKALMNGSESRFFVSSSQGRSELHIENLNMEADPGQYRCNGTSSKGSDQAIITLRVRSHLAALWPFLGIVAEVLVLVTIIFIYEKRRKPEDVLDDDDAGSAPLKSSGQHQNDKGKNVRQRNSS

[3] = target: T1, cynomolgus monkey BSG2 on the cell …; assay: flow cytometry (FACS) on BAF3 cells expressing cynomolgus BSG2
Procedure: (§2) Stable cell lines overexpressing cell-surface BSG2 or human tumor cell lines were harvested from tissue culture flasks, washed three times and resuspended in phosphate buffered saline (PBS) containing 1% bovine serum albumin and 1 mM CaCl₂ (FACS buffer). 5×10⁵ cells were incubated with antibodies at various concentrations in FACS buffer for 60 minutes on ice. Cells were washed twice and the bound murine monoclonal antibody was detected with a goat Fab′2 anti-mouse IgM+IgG+IgA (H+L) R-phycoerythrin-conjugated antibody (Southern Biotechnology Associates, Inc., Birmingham, Ala., Catalog No. 1012-08) diluted 1:500. Following incubation on ice (4° C., 60 minutes), cells were washed three times and resuspended in FACS buffer. Fluorescence was measured using a Becton Dickinson FACSCalibur-HTS (Becton Dickinson, San Jose, Calif., US). Data were analyzed using Graphpad Prism software and EC₅₀ values were reported as the concentration of antibody to achieve 50% of maximal BSG2 antibodies binding to BSG2 expressing cells.

[4] = target: T2, human BSG2 (basigin isoform 2) on the …; assay: receptor binding assay, Eu-labeled antibody on cells expressing human BSG2
Procedure: Cell lines expressing BSG2 were harvested and washed once in assay buffer (PBS, 0.1% BSA, 0.02% Na Azide, 10 mM EDTA) and resuspended to 5×10⁶ cells per mL. Serial 1:2 dilutions of ⁺³Eu-labeled anti-BSG2 antibody stock in assay buffer were made for final concentrations ranging from 1.6×10⁻⁸-7.7×10⁻¹² M, and a 4 mg/mL solution of unlabeled anti-BSG2 antibody was also prepared. To 96 well round bottom plates, 25 μl of ⁺³Eu-labeled antibody dilutions were added to 25 μl buffer (total counts), or 25 μl of unlabeled antibody were added to 25 μl buffer (background counts). 50 μl of cells at 2.5×10⁵ cells per well were then added to all samples, mixed gently, and incubated on ice for 1 hour. Cell bound antibody was then separated from unbound antibody by transferring 20 μL of the reaction mixture to Acrowell 96 well filter plates (Pall PN 5020), centrifuged for 5 min (2200 rpm), washed 3× with 150 μL cold assay buffer, and centrifuged for 5 min. Signal was determined by incubating samples with 150 μL/well of enhancement buffer and read using Envision. The specific counts were determined by subtracting the background counts (cells+labeled antibody+excess cold antibody) from the corresponding total counts (cells+labeled antibody) for each antibody concentration. The labeled antibody concentration versus total counts was analyzed using Graphpad Prism 4 to calculate Kd and Bmax values.
as §1

[5] = target: T2, human BSG2 (basigin isoform 2) on the …; assay: flow cytometry (FACS) on BAF3 cells expressing human BSG2
Procedure: as §2

[6] = target: T2, human BSG2 (basigin isoform 2) on the …; assay: cell-based ECL (MSD) binding on cells expressing human BSG2
Procedure: Cells were plated at 25,000 cells/well in 25 μl PBS using 96 well MSD high binding plates (MSD, catalogue no. L11XB-3), and incubated at 37° C. for 1 hour. 25 μl/well of blocking solution (30% serum in PBS) was added to the plates for 30 minutes at room temperature with mild agitation. Plates were then incubated with 25 μl/well of BSG2 antibodies (10 μg/ml) diluted in assay buffer (10% serum in PBS) for 1 hour at room temperature with mild agitation, and then washed 3× with PBS. Goat anti-mouse or anti-human IgG sulfotag was added at 1 μg/ml for 1 hour with mild agitation, and plates were washed 3× with PBS. After the final wash, plates were incubated with 2×MSD surfactant-free read buffer (catalogue no. R92TD-2) and the signal was detected on a MSD SECTOR Imager 6000. Data were analyzed using Graphpad Prism software and EC₅₀ values were reported.
Select humanized variants were also tested for their functionality using ADCC and cell viability assays (described in Examples 1.6 and 1.7).

[7] = target: T2, human BSG2 (basigin isoform 2) on the …; assay: cell-based or functional assay
[8] = target: T2, human BSG2 (basigin isoform 2) on the …; assay: flow cytometry (FACS) on HepG2 hepatocellular carcinoma cells (cell-surface BSG2); HepG2 hepatocellular carcinoma cells (endogenous BSG2), not BAF3 transfectants
Procedure: as §2

[9] = target: T2, human BSG2 (basigin isoform 2) on the …; assay: cell-based or functional assay; remark: listed apart in the source

B1: mouse anti-human BSG2 monoclonal antibody ML64-6A11-3A3 (antibody, mouse IgG2a, V domains shown)
VH: EVKLEESGGGLVQPGGSMKLSCVASGFTFSNFWMDWVRQSPEKGLEWIAGIRLKSYNYATHYAESVKGRFTISRDDSKSSVYLQMNNLRAEDTGIYYCTDWDGAYWGQGTLVTVSA
VL: DIVMTQSHKFMSTSVGDRVSITCKASQDVSTDVAWYQQKPGQSPKLLIYSASYRYTGVPDRFTGSGSGTDFTFTISSVQAEDLAVYYCQQHYSTPFTFGSGTKLEIK
notes: Hybridoma antibody, mouse IgG2a/kappa; also called 6A11-3A3 parental mouse antibody; Ab 3A3
Kd [1]: 3.6 nM
EC50 [2]: 0.6 nM
EC50 [3]: 0.35 nM
Kd [4]: 2 nM
EC50 [5]: 0.41 nM
EC50 [6]: 0.6 nM
Mitochondrial membrane potential, fold decrease against Neg control IgG2a, MiaPaCa cells [7]: 2.5 fold decrease
ph-Akt, fold decrease against Neg control IgG2a, MiaPaCa cells [7]: 2 fold decrease
EC50 [8]: 0.32 nM
CDC assay (% killing at 10 µg/ml Ab), MiaPaCa-2 pancreatic cancer cells [9]: 84 % killing
